The target of test [1] is T1, endogenous murine MerTK on bone marrow-derived macrophages (mouse, UniProt Q60805 19-994).
T1 construct: whole, on cells; MFI on MerTK KO BMDM subtracted; also called BMDM WT-KO
T1 sequence (looked up): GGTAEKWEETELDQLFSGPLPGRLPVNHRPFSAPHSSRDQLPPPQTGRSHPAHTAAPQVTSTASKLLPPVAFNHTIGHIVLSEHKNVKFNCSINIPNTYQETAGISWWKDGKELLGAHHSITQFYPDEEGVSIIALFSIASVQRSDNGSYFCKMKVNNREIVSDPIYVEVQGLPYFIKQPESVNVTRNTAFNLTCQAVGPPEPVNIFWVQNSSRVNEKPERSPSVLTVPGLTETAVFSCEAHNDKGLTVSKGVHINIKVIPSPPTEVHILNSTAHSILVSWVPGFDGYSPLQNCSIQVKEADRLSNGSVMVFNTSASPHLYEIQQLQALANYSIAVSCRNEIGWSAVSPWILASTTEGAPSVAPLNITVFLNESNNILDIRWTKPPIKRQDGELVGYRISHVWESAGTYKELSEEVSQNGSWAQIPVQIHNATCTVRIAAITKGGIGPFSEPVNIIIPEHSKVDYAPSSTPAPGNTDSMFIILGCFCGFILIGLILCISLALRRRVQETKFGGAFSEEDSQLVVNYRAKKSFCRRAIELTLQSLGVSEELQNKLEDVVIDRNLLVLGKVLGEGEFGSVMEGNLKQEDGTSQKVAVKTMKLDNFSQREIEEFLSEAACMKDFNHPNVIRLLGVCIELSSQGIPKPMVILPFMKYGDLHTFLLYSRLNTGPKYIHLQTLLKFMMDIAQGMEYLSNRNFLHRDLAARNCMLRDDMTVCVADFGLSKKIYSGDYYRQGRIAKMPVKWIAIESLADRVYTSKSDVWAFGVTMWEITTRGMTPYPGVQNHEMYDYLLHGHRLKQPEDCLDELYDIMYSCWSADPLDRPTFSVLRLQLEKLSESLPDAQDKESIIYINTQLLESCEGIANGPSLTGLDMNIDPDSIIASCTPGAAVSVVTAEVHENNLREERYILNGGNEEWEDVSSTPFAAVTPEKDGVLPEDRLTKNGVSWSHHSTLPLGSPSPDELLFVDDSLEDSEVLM
In words: FACS, mouse BMDM, WT minus MerTK KO. The method, then: (§1) To determine whether recombinant anti-human MerTK antibodies of the present disclosure bind to human MerTK endogenously expressed on SK-MEL-5 cells and CHO cells overexpressing mouse MerTK (CHO-muMerTK OE cells), as compared to A375 and parental CHO cells as negative controls, the following experiments were performed. SK-MEL-5 cells, A375 cells, CHO-muMerTK OE cells, and CHO parental cells were plated at 100,000 cells/well. Anti-MerTK antibodies were added to the cells at 10 μg/ml. After 60 minutes on ice, cells were washed and then stained with PE-conjugated goat anti-human IgG antibody (Southern Biotech Cat #2040-09, Birmingham, AL) in the presence of Fc block solution on ice for 30 minutes, and then washed twice with cold FACS buffer (2% FBS in PBS). Mouse anti-human MerTK-PE conjugated (Biolegend, Clone 590H11G1E3) or anti-mouse MerTK-PE conjugated (ThermoFisher, Clone DS5MMER) antibodies were used as positive controls. Stained cells were acquired on a BD FACS Canto II cytometer and the mean fluorescence intensity (MFI) was calculated with FlowJo.
To confirm anti-MerTK antibody binding to endogenous murine MerTK, bone marrow-derived macrophages (BMDM) were isolated from MerTK wild type (WT) and knockout (KO) mice (The Jackson Laboratory, Cat #011122) using standard protocols. Briefly, cells isolated from the bone marrow were plated in the presence of 50 ng/ml M-CSF (R&D Systems, Cat #416-ML) for seven days to allow for differentiation into macrophages. Cell staining, FACs, and MFI were performed and calculated as described above.

The target of test [2] is T2, mouse MerTK overexpressed on CHO cells (mouse, UniProt Q60805 19-994).
T2 construct: whole, on cells; also called CHO-muMerTK OE
T2 sequence (looked up): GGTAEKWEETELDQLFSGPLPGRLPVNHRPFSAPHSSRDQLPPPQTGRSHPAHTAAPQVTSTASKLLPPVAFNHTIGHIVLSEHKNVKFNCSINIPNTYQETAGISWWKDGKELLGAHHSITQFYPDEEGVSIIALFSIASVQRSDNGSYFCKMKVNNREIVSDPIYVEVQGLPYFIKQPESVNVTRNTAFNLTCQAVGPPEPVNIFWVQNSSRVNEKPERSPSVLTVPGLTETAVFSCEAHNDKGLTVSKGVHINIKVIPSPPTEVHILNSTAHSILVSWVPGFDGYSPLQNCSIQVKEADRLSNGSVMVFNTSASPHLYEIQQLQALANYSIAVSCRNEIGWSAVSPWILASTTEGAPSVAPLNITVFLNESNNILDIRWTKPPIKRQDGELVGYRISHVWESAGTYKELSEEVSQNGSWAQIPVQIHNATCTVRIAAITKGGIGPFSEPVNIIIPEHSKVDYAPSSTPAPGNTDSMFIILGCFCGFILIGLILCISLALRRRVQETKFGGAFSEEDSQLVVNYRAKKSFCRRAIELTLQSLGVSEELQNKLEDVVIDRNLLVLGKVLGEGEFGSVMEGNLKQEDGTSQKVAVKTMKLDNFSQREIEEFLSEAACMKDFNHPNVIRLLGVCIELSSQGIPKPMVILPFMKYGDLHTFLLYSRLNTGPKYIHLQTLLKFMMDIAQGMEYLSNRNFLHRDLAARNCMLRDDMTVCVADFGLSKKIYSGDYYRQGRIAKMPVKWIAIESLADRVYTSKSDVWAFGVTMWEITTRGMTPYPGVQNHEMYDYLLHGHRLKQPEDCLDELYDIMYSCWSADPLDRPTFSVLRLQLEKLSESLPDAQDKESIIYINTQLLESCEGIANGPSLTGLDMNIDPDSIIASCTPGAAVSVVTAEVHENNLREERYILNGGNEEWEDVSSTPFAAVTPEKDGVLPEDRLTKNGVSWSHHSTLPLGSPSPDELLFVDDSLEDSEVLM
In words: FACS, CHO-muMerTK OE cells, 10 ug/ml. The method, then:
as §1
For orientation: A flow cytometer gives signals particle by particle.

For test [3], the target named is T3, MerTK N-terminal ECD Half-and-half chimera (human).
T3 construct: tested as culture supernatant; also called MerTK N-term half-and-half chimera; MerTK N-terminal ECD (NT-Ig1-Ig2) + Axl C-terminal ECD (FN1-FN2-JM)
T3 chain: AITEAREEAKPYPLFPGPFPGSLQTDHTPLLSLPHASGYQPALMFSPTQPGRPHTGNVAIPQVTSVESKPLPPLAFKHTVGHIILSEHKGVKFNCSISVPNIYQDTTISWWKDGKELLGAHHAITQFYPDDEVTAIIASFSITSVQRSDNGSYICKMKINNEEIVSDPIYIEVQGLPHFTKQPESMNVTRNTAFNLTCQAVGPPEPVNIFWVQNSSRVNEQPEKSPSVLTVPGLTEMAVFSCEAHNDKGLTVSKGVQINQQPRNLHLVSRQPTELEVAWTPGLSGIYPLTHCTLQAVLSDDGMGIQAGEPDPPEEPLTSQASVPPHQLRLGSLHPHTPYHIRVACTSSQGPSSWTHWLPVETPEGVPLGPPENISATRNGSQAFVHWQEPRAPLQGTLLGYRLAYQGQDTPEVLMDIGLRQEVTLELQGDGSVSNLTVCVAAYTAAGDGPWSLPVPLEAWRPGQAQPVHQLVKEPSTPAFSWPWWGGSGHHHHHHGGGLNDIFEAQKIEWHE
In words: SPR, construct supernatant over immobilised Ab. Here is the method: (§2) Binding of anti-MerTK antibodies of the present disclosure to these domain-swapped chimera or deletion mutants was tested by Surface Plasmon Resonance (SPR) using Carterra LSA. Purified anti-MerTK antibodies were immobilized in duplicate on a HC30M chip (Carterra) by amine coupling, following the manufacturer's instructions (described previously).
(§3) Supernatants containing the constructs were diluted 1:1 with running buffer containing 0.5 mg/mL BSA (HBS-TE, Carterra; BSA, Sigma) and injected over the immobilized antibodies. The surface was regenerated with 10 mM Glycine pH2.0 after each construct injection. Sensorgrams were analyzed using Carterra Epitope software to identify patterns of construct binding. Loss of binding to MerTK constructs with domains deleted or swapped in from Axl and/or gain of binding to Axl constructs with MerTK domains swapped in were evaluated. Data from these studies were used to construct a domain binding map for anti-MerTK antibodies and their binding to various domains of human MerTK.

Test [4] addresses T4, Full Axl (ECD domain of human Axl) (human, UniProt P30530 26-451).
T4 construct: also called human Axl ECD
T4 sequence: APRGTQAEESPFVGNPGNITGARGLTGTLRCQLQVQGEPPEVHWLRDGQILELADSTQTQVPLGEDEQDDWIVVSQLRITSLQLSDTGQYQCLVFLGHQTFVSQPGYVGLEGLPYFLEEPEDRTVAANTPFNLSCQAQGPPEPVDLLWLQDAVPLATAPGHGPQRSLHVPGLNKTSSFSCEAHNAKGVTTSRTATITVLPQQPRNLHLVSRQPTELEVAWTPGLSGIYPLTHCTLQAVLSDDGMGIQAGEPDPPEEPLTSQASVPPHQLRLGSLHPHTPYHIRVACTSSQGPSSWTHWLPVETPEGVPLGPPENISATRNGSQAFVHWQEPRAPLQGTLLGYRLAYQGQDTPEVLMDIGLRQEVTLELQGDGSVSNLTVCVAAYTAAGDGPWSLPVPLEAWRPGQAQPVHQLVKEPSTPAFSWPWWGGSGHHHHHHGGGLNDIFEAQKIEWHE
In words: SPR (data not shown). The method, then: as §2, §3

Test [5] concerns the target T5, recombinant murine MerTK extracellular domain (mouse, UniProt Q60805 19-497).
T5 construct: also called Mouse MerTK; murine MerTK ECD; not shown: polyHis or TEVS/Thrombin/murine IgG2a-Fc tag
T5 sequence: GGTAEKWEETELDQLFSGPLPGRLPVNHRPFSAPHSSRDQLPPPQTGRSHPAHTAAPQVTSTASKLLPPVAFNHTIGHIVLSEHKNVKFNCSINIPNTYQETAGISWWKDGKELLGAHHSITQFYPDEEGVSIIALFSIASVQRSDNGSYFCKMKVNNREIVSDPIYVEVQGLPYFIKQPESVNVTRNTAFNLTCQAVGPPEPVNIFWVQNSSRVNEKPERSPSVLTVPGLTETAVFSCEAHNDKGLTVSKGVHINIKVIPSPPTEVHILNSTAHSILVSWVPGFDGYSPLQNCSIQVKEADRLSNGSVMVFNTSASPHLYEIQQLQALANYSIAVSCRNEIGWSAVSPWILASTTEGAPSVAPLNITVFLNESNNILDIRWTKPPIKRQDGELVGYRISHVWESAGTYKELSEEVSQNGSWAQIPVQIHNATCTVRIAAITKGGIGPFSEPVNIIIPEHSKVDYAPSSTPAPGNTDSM
In words: SPR Carterra LSA, Ab immobilised. Here is the method: Binding kinetics of anti-MerTK IgG1 antibodies of the present disclosure to human, cyno, and murine MerTK were evaluated using a Carterra LSA instrument (Carterra, Salt Lake City, UT). […] A HC200M sensor chip (Carterra) was activated using the single channel flow cell with a 7-minute injection of a 1:1:1 mixture of 100 mM MES pH 5.5, 100 mM sulfo-NHS, 400 mM EDC (all reconstituted in MES pH 5.5; 100 μl of each mixed in vial immediately before running assay). After switching to the multi-channel array flow cell, the antibodies were injected over the activated chip in three 96-spot arrays for 10 minutes each. The remaining unconjugated active groups on the chip were then blocked by injecting 1M Ethanolamine pH 8.5 (Carterra) for 7 minutes using the single channel flow cell. The resulting sensor chip contained three spots for each antibody, at three different densities. Two independent experiments were performed as follows, resulting in an N of between one and six determinations for each antibody. Spots that yielded less than 25 RU of analyte binding were excluded from further analysis.
After priming with running buffer (HBS-TE, Carterra) with 0.5 mg/ml BSA (Sigma), the immobilized anti-MerTK antibodies were tested for their ability to bind to several forms of recombinant MerTK extracellular domain, including human, cynomolgus, and mouse orthologs as described above. Estimates of affinity were generated by injecting each analyte over the entire antibody array using the single channel flow cell. MerTK analytes were diluted with running buffer, in a series of six, three-fold serial dilutions starting from 1 μM for human and cynomolgus MerTK, and 600 nM for mouse MerTK. Analytes were injected for 5 minutes, and dissociation was followed for 10 minutes. After each analyte injection, antibodies were regenerated with either Protein A/G Elution Buffer (Thermo) with 1M NaCl (Teknova), or with 10 mM Glycine pH 2.5. Three buffer blanks were run between each series (one species per series). Data were processed and analyzed using NextGenKIT high-throughput kinetics analysis software (Carterra).

B1: MTK-205 (antibody, human IgG1, V domains shown)
VH: EVQLQQSGPELVKPGASVKISCKTSGYTFTEYIMHWVKQSHGKSLEWIGGINPNNLGIIYNQKFKGKATLTVDKSSSTAYMELRSLTSEDSEVYYCARDGYFGFDYWGQGTTLKVSS
VL: DIVMTQSHKFMSTSVGDRVSITCKASQDVGTSVAWYQQKPGHSPKLLIYWTSTRRTGVPDRFTGSGSGTDFTLTISNVQSEDLADYFCHQYNSYPLTFGAGTKLELK
As to B1, the MFI in test [1] is 737 MFI; in test [2] it was 240 MFI. Also, the binding result in test [3] and in test [4] was “no binding” throughout.

B2: MTK-217 (antibody, human IgG1, V domains shown)
VH: QVQLQQPGTEVVKPGASVKMSCRASGYTFTSYWITWVKQRPGQGLEWIGDIHPGSGINNYNEKFRSKATLTVDTSSSTVYMELSSLTSEDSAVYYCAKGGYYGSSYYVMDYWGQGTSVTVSS
VL: DILLTQSPAILSVSPGERVSFSCRASQTIGTSIHWYQQRTNDSPRLLIKYASESISGIPSRFSGSGSGTDFTLSINSVESEDIADYYCQQSNDWPYTFGGGTKLEIK
As for B2, the binding result is “no binding (tested: analyte up to 600 nM)” in test [5], “no binding” in test [3] and “no binding” in test [4].
